Consider three substances from patent US5532348.

Test [1] concerns the target HPV16 E6, wheat germ extract translated (human papillomavirus type 16) (UniProt P03126).
Test [2] has the same target. This is another data set of the same source.

“GST-E6-AP fusion protein with amino acids 371 to 440 of SEQ ID NO:1 (SEQ ID NO:2)” came in with a percent of the input 35S-labeled HPV16 E6 bound in test [1] of 50%.
As to “synthetic peptide consisting of the 18 mer region, amino acids 391 to 408 of SEQ ID NO:1 (SEQ ID NO:3)”, the molar excess for fifty percent binding competition in test [2] came to 5000.
“GST-E6-AP fusion protein, amino-terminal portion (amino acids 213 to 489 of SEQ ID NO:1)” came in with a percent of the input 35S-labeled HPV16 E6 bound in test [1] of 50%.
